Measurements from patent US20230303681A1 (published 2023).
Values joined by “and” are separate entries in the source; they are usually repeats but may differ in a detail not shown here. Equal values may be shown once.

B1: anti-TMEM106B antibody TM-51 (antibody, V domains shown)
VH: QVQLQQPGAELVKPGASVKLSCKASGYTFTTYWIDWVKQRPGQGLEWIGNMFPGSSRTNYNEKFKSRATLTVDTSSSTAYMQLSSLTSDDSAVYYCARKEGLWTYGYDGGAWFAYWGQGTLVTVSA
VL: DIVMSQSPSSLAVSVGEKVTMSCKSSQSLRNSRTRKNYLAWYQQKPGQSPKLLIYWASTRESGVPDRFTGSGSGTDFTLTISSVQAEDLAIYYCKQSYNLLTFGAGTKLELK
notes: mouse IgG from hybridoma
B2: anti-TMEM106B antibody TM-5 (antibody, V domains shown)
VH: QVQLQQSGTELARPGASVKVSCKASGYIFTTYGITWVKQRGGQGLEWIGEIYPRSDNTYYNEKFKDKATLTADKSSSTAYMELRSLTSEDSAVYFCARSKGSGTGDYWGQGTTVTVSS
VL: DIQMTQSPASLSASVGETVTITCRASENIYIYLAWYQQKQGKTPQLLVYNGKMLAENVPSRFSGSGSGTQFSLKINSLQPEDFGSYYCQHHYGSPPAFGAGTKLELK
B3: anti-TMEM106B antibody TM-42 (antibody, V domains shown)
VH: QVQLQQSGAELAKPGASVKLSCKASGYTFTNYWMHWVKKRPGQGLEWIGYINPSSGYTKYNQKFKDKATLTADKSSNTAYMQLSSLTYEDSAVYYCTREGGSISDWYFDVWGTGTTVTVSS
VL: DIVMTQAAPSLPVTPGESVSISCRSSKSLLHSNGNTYLYWFLQRPGQSPQLLIYRMSNLASGVPDRFSGSGSGTAFTLRISRVEAEDVGVYYCMQHLEYPYTFGGGTKLEIK
B4: anti-TMEM106B antibody TM-39 (antibody, V domains shown)
VH: HVQRQQSGTELAKPGASVKLSCKTSGYTFTDYWMHWIKQRPGQGLEWIGFINPSSGYTKYNQNFKDKATLTADKSSSTAYMQLSSLTYEDSAVFYCAREAGSISDWYFDVWGTGTTVTVSS
VL: DIVMTQAAPSIPVTPGESVSISCRSSKTLLNSNGNTYLYWFLQRPGQPPQLLIYRMSNLASGVPDRFSGSGSGTAFTLRISRVEAEDVGVYYCMQHLDYPYTFGGGTQLEIK
B5: anti-TMEM106B antibody TM-45 (antibody, V domains shown)
VH: QVQLQQSGAELAKPGASVKLSCKASGYTFTNYWMHWVKKRPGQGLEWIGYINPSSGYTKYNQKFKDKATLTADKSSNTAYMQLSSLTYEDSAVYYCTREGGSISDWYFDVWGTGTTVTVSS
VL: DIVMTQAAPSLPVTPGESVSISCRSSKSLLHSNGNTYLYWFLQRPGQSPQLLIYRMSNLASGVPDRFSGSGSGTAFTLRISRVEAEDVGVYYCMQHLEYPYTFGGGTKLEIK
B6: anti-TMEM106B antibody TM-37 (antibody, V domains shown)
VH: QVQLQQSGAELAKPGASVKLSCKASGYTFTSYWMHWVKQRPGQGLEWIGYVNPSSGYTKNNQKFKDKVTLTADKSSSTAYMQLSSLTYEDSAVYYCAREGGSISDWYFDVWGTGTTVTVSS
VL: DIVMTQAAPSVPVTPGESVSISCRSSKSLLHSNGNTYSYWFLQRPGQSPQLLIYRMSNLASGVPDRFSGSGSGTAFTLRISRVEAEDVGVYYCMQHLEYPYTFGGGTKLEIK
B7: anti-TMEM106B antibody TM-7 (antibody, V domains shown)
VH: EVQLQQSGPVLVKPGPPVKISCKASGFTFTDYYIHWVKLSHGKSLEWIGLVYPYNGDTDYNQKFKGKATLTVDTSSSTAYMELNSLTSEDSAVYYCARTYYANSPDYWGQGTTVTVSS
VL: DIVMTQSPSSLSVSAGEKVTMSCKSSQSLLNSGNQRNYLAWYQQKPGQPPKLLIYGASTRESGVPDRFTGSGSGTDFTLTISNVQAEDLAVYYCQNDHSYPLTFGAGTKLELK
B8: anti-TMEM106B antibody TM-47 (antibody, V domains shown)
VH: QVQLKESGPVLVAPSQSLSITCTVSGFSLTNYGVHWVRQPPGKGLEWLGVIWAGGNTNYNSALMSRLSISKDNSKSQVFLKMNSLQTDDTAMYYCAKEAKLLRSYAMDYWGQGTSVTVSS
VL: DIVMTQSPSSLTVTAGEKVTMSCKSSQSLLNSGNQKNYLTWYQQKPGQPPKLLIYWASTRESGVPDRFTGSGSGTDFTLTISSVQAEDLAVYYCQNDYSYPLTFGAGTKLEIK
notes: mouse IgG from hybridoma
B9: anti-TMEM106B antibody TM-46 (antibody, V domains shown)
VH: QVQLQQSGADLVKPGASVKISCKASGYAFSSFWMNWVKLRPGKGLEWIGQIYPGDGDTDYNGKFKDKATLTADTSSNTAYMQLSRLTSEDSAVYFCARGDGFSYFDYWGQGTILTVSS
VL: QIVLTQSPVIMSASPGERVTMTCCASSRVNYMHWYQQKSGSYPKRWIYDTSKLASGVPGRFSGSGSGTSYSLTISSMEAEDAATYYCQQWSSNPPTFGGGTKLEIK
B10: anti-TMEM106B antibody TM-9 (antibody, V domains shown)
VH: EVQLVESGGDLVKPGGSLKLSCVASGFTFSGYGMSWVRQTPDKRLEWVATISSGSFYIYYPDSVKGRLTVSRDNAKNTLYLQMSSLKSEDTAIYYCARQNFYYGCEDYWGQGTTLTVSS
VL: DIVMTQAAFSNPVTLGTSASISCRSSKSLLHSNGITYLYWYLQKPGQSPQLLIYQMSNLASGVPNRFSSSGSGTDFTLRISRVEAEDVGVYYCAQNLELPWTFGGGTKLEIK
B11: anti-TMEM106B antibody TM-34 (antibody, V domains shown)
VH: EVQLVESGGGLVKPGGSLKLSCAASGFSFSDSGMDWVRQAPEKGLEWFAYISSGSSTTHYADTVKGRFIISRDNAKNTLFLQMTSLRSEDTAMYYCVRRDGNYWYFDVWGTGTTVTVSS
VL: QIVLSQSPVILSASPGEKVTMTCRATSSVTYMHWYQLKPGSSPKPWIYATSNLASGVPARFSGSGSGTSYSLTISRVEAEDAATYYCQQWSSNPYTFGGGTKLEIK

How the values were obtained:
GST (Pierce) [1] = molecular target: T1, GST (Pierce) (UniProt P08515 1-218 = GST, limits assumed); assay: array SPR, Ab immobilised
T1 construct: control for the GST part of the fusion protein; also called GST protein; Glutathione-S-transferase

human TMEM106B [2] = molecular target: T2, human TMEM106B (human, UniProt Q9NUM4 2-274); assay: FACS A549
T2 construct: Full-length, on transiently transfected HEK293 cells, or natively expressed on HeLa, U251 and A549 cells; also called huTMEM106B; huTMEM

human TMEM106B [3] = molecular target: T2, human TMEM106B; assay: FACS HeLa;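 further: flow cytometry of cells incubated with hybridoma supernatant or purified antibody at 10 µg/ml for 1 h on ice, propidium iodide–positive dead cells gated out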
human TMEM106B [4] = molecular target: T2, human TMEM106B; assay: FACS A549, 10 ug/ml
Procedure: (§1) Purified anti-TMEM106B antibodies were evaluated for their binding affinity to various TMEM106B-expressing cell lines including HEK293 transiently transfected with human/cyno/mouse TMEM106B, as well as HeLa cells and A549 cells. Antibodies tested for this experiment were mouse IgGs purified from hybridoma supernatant. Affinity binding to cells was determined as follows. Briefly, 1x10^5 cells were aliquoted per well in 96-well round bottom plates and incubated with 50 µL of purified anti-TMEM106B antibody at various concentrations (10x dilutions starting at 10 µg/ml) in FACS buffer (PBS + 2% FBS + 1 mM EDTA). […] Sorting was performed on a iQue (Intellicyt), with sort gates drawn to exclude dead (propidium iodide +) cells. Binding data was analyzed using median fluorescent intensity (MFI) and graphed in Prism. Values presented are MFI.

human TMEM106B [5] = molecular target: T2, human TMEM106B; assay: FACS HEK+huTMEM, 10 ug/ml;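 further: purified mouse IgG antibodies at 10 µg/ml bound to HEK293 cells transiently expressing human TMEM106B, measured by flow cytometry as median fluorescence intensity of propidium iodide negative live cells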
Procedure: as §1

GST (Pierce) [6] = molecular target: T1, GST (Pierce); assay: ELISA, coated GST;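 further: ELISA on plates coated with GST alone at 1-10 µg/ml, antibodies applied at 100-1000x dilution, bound antibody detected by peroxidase substrate colour after acid stop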
Procedure: Briefly, 96-well polystyrene plates were coated with 1-10 µg/ml of recombinant GST-TMEM106B-truncated protein or GST (Pierce) in PBS either at 370 Cfor 1-4 hours or overnight at 4 °C. Coated plates were then blocked with 5% BSA for 1-hour, washed 3×150 µL in TBST (Tris-buffered saline + 0.1% Tween20), and then the antibodies were added at various dilutions (100-1000x) in PBS. After 1-hour incubation (room temperature, with shaking), the plates were washed 3x150 µL in TBST. […] After a final set of washes (3×150µL in TBST), 100 µL of peroxidase substrate was added for 1 minute; the reaction was then quenched with 2N sulfuric acid (100 µL).

human TMEM106B [7] = molecular target: T2, human TMEM106B; assay: FACS HEK+huTMEM, 0.01 ug/ml
human TMEM106B [8] = molecular target: T2, human TMEM106B; assay: FACS A549, 1 ug/ml
human TMEM106B [9] = molecular target: T2, human TMEM106B; assay: FACS U251;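 further: flow cytometry of cells exposed to antibody (purified at 10 µg/mL, or hybridoma supernatant) for 1 h on ice, with propidium iodide-positive dead cells gated out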
[10] = molecular target: T3, GST-fusion human TMEM106B truncated (human); assay: array SPR, Ab immobilised;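 further: antibodies amine-coupled on an MX-96 chip, antigen flowed at 500 nM top concentration in 5-fold serial dilutions, GST alone run as nonspecific-binding control, duplicate measurements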
T3 construct: also called GST-TMEM106B-truncated protein; GST-TMEM106B (truncated)
Procedure: Binding kinetic characterization of the purified antibodies was performed by Carterra using a proprietary array SPR instrument (MX-96) as follows. Briefly, antibodies were prepared by diluting to 5 µg/ml in 10 mM Acetate, pH 4.5 (Carterra), at 150 µL/well and then made an additional dilution at 1:10 from there by titrating 11 µl into 100 µL. […] The chip was activated with 18 mM EDC (Sigma Bioxtra) and 4.5 mM S-NHS (Thermo Fisher) diluted in 100 mM MES, pH 5.5, for 7 minutes, and then antibodies were coupled for 10 minutes at 45 µL/minute. After coupling, the chip was returned to the MX-96 and quenched for 7 minutes using 1 M Ethanolamine pH 8.5 (Carterra).
Printed antibodies were profiled for their ability to bind GST-TMEM106B (truncated) protein (described above). Briefly, GST-TMEM106B (truncated) antigen was diluted to 18 µg/ml (500 nM of 36 kDa fusion protein) by mixing 2.7 µL of 2.0 mg/ml antigen into 298 µL Running buffer (HBS-EP+, Teknova with 1 mg/ml BSA, Sigma), and titrated 50 µl into 200 µl for 5-fold serial dilutions. In addition, binding to GST (Pierce) was assayed under the same conditions to determine the extent of any nonspecific binding of the anti-TMEM106B antibodies to GST portion of the TMEM106B-GST fusion protein. Duplicate measurements for each anti-TMEM106B antibody were taken to ensure reproducibility.

human TMEM106B [11] = molecular target: T2, human TMEM106B; assay: FACS HEK+huTMEM, 1.0 ug/ml
Procedure: as §1

human TMEM106B [12] = molecular target: T2, human TMEM106B; assay: FACS HEK+huTMEM, 0.1 ug/ml;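 further: flow cytometry binding of purified mouse IgG antibodies to HEK293 cells transiently expressing TMEM106B, read as median fluorescence intensity with propidium iodide positive dead cells gated out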
Procedure: as §1

[13] = molecular target: T4, cynomolgus (cyno) TMEM106B (cynomolgus, UniProt Q9NUM4 2-274 (human entry)); assay: FACS, HEK293 transfectants;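 further: flow cytometry binding of hybridoma supernatants to HEK293 cells transiently expressing human, cyno or mouse TMEM106B, read as anti-mouse-APC median fluorescence, live cells only, 30 min on ice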
T4 construct: on transiently transfected HEK293 cells
Procedure: (§2) For screening of the hybridoma cell culture supernatants, humanTMEM106B-transfected HEK293 cells were aliquoted in 96-well round bottom plates (2x10^5 cells per well) and incubated with 50 µL of hybridoma cell culture supernatant on ice for 30 minutes. […] Median fluorescence intensity (MFI) of anti-mouse-APC MFI on TMEM106B+ HEK293 cells was calculated for each clone, and those displaying a signal of at least 2-fold over background compared to a secondary-antibody only well were taken forward for further analysis and characterization.

mouse TMEM106B [14] = molecular target: T5, mouse TMEM106B (mouse, UniProt Q80X71 2-275); assay: FACS, HEK293 transfectants;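 further: flow cytometry binding of hybridoma supernatants to HEK293 cells transiently expressing human, cyno or mouse TMEM106B, read as anti-mouse-APC median fluorescence, live cells only, 30 min on ice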
T5 construct: on transiently transfected HEK293 cells, or natively expressed on mouse Neuro2a cells; also called moTMEM106B; murine TMEM106B
Procedure: as §2

human TMEM106B [15] = molecular target: T2, human TMEM106B; assay: FACS, HEK293 transfectants;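 on fold over negative controls: hybridoma supernatants incubated 30 min on ice with human TMEM106B-expressing HEK293 cells, binding read as anti-mouse-APC median fluorescence on live cells, relative to secondary-antibody-only wells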;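 on fold-change over parental HEK293: flow cytometry binding of hybridoma supernatants to HEK293 cells transiently expressing human, cyno or mouse TMEM106B, read as anti-mouse-APC median fluorescence, live cells only, 30 min on ice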
Procedure: as §2

human TMEM106B [16] = molecular target: T2, human TMEM106B; assay: FACS, HEK293 transfectants; remark: listed apart in the source;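 on fold over negative controls: hybridoma supernatants incubated 30 min on ice with human TMEM106B-expressing HEK293 cells, binding read as anti-mouse-APC median fluorescence on live cells, relative to secondary-antibody-only wells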;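 on fold-change over parental HEK293: flow cytometry binding of hybridoma supernatants to HEK293 cells transiently expressing human, cyno or mouse TMEM106B, read as anti-mouse-APC median fluorescence, live cells only, 30 min on ice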
mouse TMEM106B [17] = molecular target: T5, mouse TMEM106B; assay: FACS Neuro2a;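 further: flow cytometry of cells stained with antibody or hybridoma supernatant (purified antibody at 10 µg/ml) for 1 h on ice, propidium iodide–positive dead cells gated out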
Procedure: All cells were cultured in either T75 or T150 flasks. […] The enzyme was quenched by addition of fresh media, and the cells were then distributed into 96-well plates for FACS analysis.
FACS analysis was performed as follows. Each cell type was aliquoted in 96-well round bottom plates (2x10^5 cells per well), washed once with FACS buffer (PBS + 2% FBS + 1 mM EDTA), and incubated with 50 µL of hybridoma supernatant or purified antibody (10 µg/ml in FACS buffer) on ice for 1 hour. […] Following this secondary incubation, the cells were again washed 2x with ice-cold FACS buffer and resuspended in a final volume of 50 µL of FACS buffer + 0.25 µl/well propidium iodide (Fisher Scientific # BDB556463). Analysis was performed on a FACSCanto system (BD Biosciences) or iQue (Intellicyt), with sort gates drawn to exclude dead (i.e., propidium iodide positive) cells.
Data is presented as mean fluorescence intensity (MFI).

| Binder | binding result (GST (Pierce) [1]) | MFI (human TMEM106B [2]) | MFI (human TMEM106B [3]) | MFI (human TMEM106B [4]) | MFI (human TMEM106B [5]) | binding result (GST (Pierce) [6]) | MFI (human TMEM106B [7]) | MFI (human TMEM106B [8]) | MFI (human TMEM106B [9]) | Kd [10] | koff [10] | kon [10] | MFI (human TMEM106B [11]) | MFI (human TMEM106B [12]) | fold-change over parental HEK293 [13] [fold] | fold-change over parental HEK293 (mouse TMEM106B [14]) [fold] | fold-change over parental HEK293 (human TMEM106B [15]) [fold] | fold over negative controls (human TMEM106B [16]) [fold] | MFI (mouse TMEM106B [17]) |
| --- | --- | --- | --- | --- | --- | --- | --- | --- | --- | --- | --- | --- | --- | --- | --- | --- | --- | --- | --- |
| B1 | no binding | – | – | – | – | – | – | – | – | – | – | – | – | – | – | – | – | – | – |
| B2 | – | 1170 | 1740 | 4800 | 59300 | no binding | 2180 | 1970 | 866 | 1.4 nM and 1.8 nM | 3.3e-05 s⁻¹ and 4.8e-05 s⁻¹ | 23000 M⁻¹ s⁻¹ and 26000 M⁻¹ s⁻¹ | 64500 | 10800 | 37 | 26.6 | 11.4 | > 2 | 1610 |
| B3 | no binding | 947 | 215 | 3300 | 60100 | – | 2070 | 1780 | 326 | 33 nM and 24 nM | – | – | 58100 | 16700 | – | – | – | – | 237 |
| B4 | no binding | – | – | 5330 | 51900 | – | 3850 | 3610 | – | 4.1 nM and 2.2 nM | 5.8e-05 s⁻¹ and 3e-05 s⁻¹ | 14000 M⁻¹ s⁻¹ | 55600 | 19200 | – | – | – | > 2 | – |
| B5 | no binding | 819 | 191 | 3240 | 58100 | – | 2500 | 1860 | 517 | 19 nM and 18 nM | – | – | 57600 | 21300 | – | – | – | – | 187 |
| B6 | no binding | 1040 | 254 | 4210 | 50500 | – | 3920 | 2980 | 408 | 2.6 nM and 6.3 nM | – | – | 58700 | 29400 | – | – | – | – | 208 |
| B7 | – | 647 | 1070 | 1810 | 40800 | no binding | 1670 | 883 | 442 | – | – | 9900 M⁻¹ s⁻¹ and 10000 M⁻¹ s⁻¹ | 40000 | 9870 | 47.5 | 15.5 | 17.5 | > 2 | 1200 |
| B8 | no binding | – | – | – | – | – | – | – | – | – | – | – | – | – | – | – | – | – | – |
| B9 | no binding | – | – | – | – | – | – | – | – | – | – | – | – | – | – | – | – | – | – |
| B10 | – | 1990 | 2540 | 7090 | 56400 | no binding | 3940 | 4880 | 1540 | 4.2 nM and 5.2 nM | 8.3e-05 s⁻¹ and 8.4e-05 s⁻¹ | 20000 M⁻¹ s⁻¹ and 16000 M⁻¹ s⁻¹ | 62100 | 28300 | 22.3 | 8.52 | 10.7 | > 2 | 2710 |
| B11 | no binding | – | – | – | – | – | – | – | – | – | – | – | – | – | – | – | – | – | – |
